The values below come from paper PMC10066393, “Structural insights into the mechanism of leptin receptor activation” (Nature Communications, 2023).

The target in assay [1] is Myc-tagged full-length human LepR, wild type (human) (UniProt P48357).
Assay [2] has the same target. The source holds these as a separate data set.
Assay [3] concerns the target mouse LepR^D1-D7-zip (Mus musculus | not stated) (UniProt P48356).
Assay [4] has as its target T1, mouse leptin (Mus musculus, UniProt P41160 22-167).
T1 construct: leptin, Mus musculus, produced in E. coli; Two leptin molecules stand in the 2:2 complex with the zippered LepR dimer; also called M. musculus leptin; source: Escherichia coli produced
The assay can be described thus: SEC; mouse leptin incubated with purified LepR-zip overnight at 4 °C at a leptin:LepR ratio of 4:1; Superdex 200 in PBS pH 7.2; co-elution. To be noted: both partners purified. On the technique in general: Size exclusion chromatography separates by hydrodynamic size, large species first.

In assay [5] the target is T1, mouse leptin. Put plainly: cryo-EM structure; SEC-purified leptin–LepR-zip complex cross-linked with 1 mM BS3, 1–2 mg/ml in PBS, 0.01% fluorinated octyl maltoside; single particle cryo-EM, AlphaFold models docked and refined. Conditions: both partners purified.

Chain of Myc-tagged full-length human LepR, wild type (human) (P48357 22-1165): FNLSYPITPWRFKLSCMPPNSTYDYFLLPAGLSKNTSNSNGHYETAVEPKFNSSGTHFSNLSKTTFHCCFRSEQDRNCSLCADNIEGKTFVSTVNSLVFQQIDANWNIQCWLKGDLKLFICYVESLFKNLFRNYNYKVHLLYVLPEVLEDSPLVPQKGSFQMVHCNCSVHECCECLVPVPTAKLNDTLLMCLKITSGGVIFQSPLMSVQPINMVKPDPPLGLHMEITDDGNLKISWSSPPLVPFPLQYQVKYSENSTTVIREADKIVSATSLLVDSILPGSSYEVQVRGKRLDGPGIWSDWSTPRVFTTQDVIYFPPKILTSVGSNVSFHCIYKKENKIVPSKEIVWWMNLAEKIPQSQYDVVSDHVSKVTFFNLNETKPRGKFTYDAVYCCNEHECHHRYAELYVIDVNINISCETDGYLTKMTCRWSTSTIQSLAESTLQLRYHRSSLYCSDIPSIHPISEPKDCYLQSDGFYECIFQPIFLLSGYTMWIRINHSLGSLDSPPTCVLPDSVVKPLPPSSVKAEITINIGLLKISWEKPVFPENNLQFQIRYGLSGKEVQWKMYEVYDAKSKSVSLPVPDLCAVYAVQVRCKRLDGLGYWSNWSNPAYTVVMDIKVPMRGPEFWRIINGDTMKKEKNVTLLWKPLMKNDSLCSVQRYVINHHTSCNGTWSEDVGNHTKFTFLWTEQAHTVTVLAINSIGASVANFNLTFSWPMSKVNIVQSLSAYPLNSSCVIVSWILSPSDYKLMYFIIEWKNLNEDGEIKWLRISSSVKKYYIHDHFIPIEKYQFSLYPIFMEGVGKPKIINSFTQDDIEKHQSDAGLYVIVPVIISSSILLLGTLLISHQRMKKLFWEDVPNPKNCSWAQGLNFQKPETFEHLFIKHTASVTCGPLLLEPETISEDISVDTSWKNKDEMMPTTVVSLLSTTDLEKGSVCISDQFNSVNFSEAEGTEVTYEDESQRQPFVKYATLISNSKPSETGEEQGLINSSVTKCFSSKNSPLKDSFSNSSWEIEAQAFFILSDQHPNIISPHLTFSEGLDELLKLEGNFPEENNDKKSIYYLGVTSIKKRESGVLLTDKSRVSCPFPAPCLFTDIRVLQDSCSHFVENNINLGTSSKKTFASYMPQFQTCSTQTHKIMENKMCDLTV
T1 sequence (P41160 22-167): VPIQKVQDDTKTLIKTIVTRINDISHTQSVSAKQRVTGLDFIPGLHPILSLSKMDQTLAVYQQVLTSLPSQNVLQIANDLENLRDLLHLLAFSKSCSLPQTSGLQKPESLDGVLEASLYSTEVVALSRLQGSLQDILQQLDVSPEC

Take human leptin D23L/S117N (ligand): in assay [1], the phospho-STAT3 left, immunoblots, HEK-293T cells stably expressing hLepR, 10 nM WT leptin plus the variant, relative to WT leptin alone (% of WT leptin alone) worked out at 50; the reduction of phospho-SHP2 and phospho-ERK, immunoblots, HEK-293T cells stably expressing hLepR, 10 nM WT leptin plus the variant, 20 min amounted to 90 % reduction. Consider human leptin K33A/Q34A/K35A (ligand), for which, in assay [2], the maximal phospho-STAT3 response, dose-response by phospho-flow cytometry, LepR-expressing HEK 293T cells, percent of WT leptin (% of WT leptin) is 75. The same measure, in the same setting: the figure for human leptin S117N (ligand) is 45. In the case of “leptin S117A used on cells expressing mouse LepR (from UniProt P41160 22-167) (ligand)”, in assay [3], the activation of ERK in cells expressing mouse LepR (the whole receptor on cells, not the zip construct) came to 5%; the activation of SHP2 in cells expressing mouse LepR (the whole receptor on cells, not the zip construct) amounted to 20%; the activation of STAT3 in cells expressing mouse LepR (the whole receptor on cells, not the zip construct) is 60%.

B1: mouse LepR^D1-D7-zip (receptor)
chain: NLAYPISPWKFKLFCGPPNTTDDSFLSPAGAPNNASALKGASEAIVEAKFNSSGIYVPELSKTVFHCCFGNEQGQNCSALTDNTEGKTLASVVKASVFRQLGVNWDIECWMKGDLTLFICHMEPLPKNPFKNYDSKVHLLYDLPEVIDDSPLPPLKDSFQTVQCNCSLRGCECHVPVPRAKLNYALLMYLEITSAGVSFQSPLMSLQPMLVVKPDPPLGLHMEVTDDGNLKISWDSQTMAPFPLQYQVKYLENSTIVREAAEIVSATSLLVDSVLPGSSYEVQVRSKRLDGSGVWSDWSSPQVFTTQDVVYFPPKILTSVGSNASFHCIYKNENQIISSKQIVWWRNLAEKIPEIQYSIVSDRVSKVTFSNLKATRPRGKFTYDAVYCCNEQACHHRYAELYVIDVNINISCETDGYLTKMTCRWSPSTIQSLVGSTVQLRYHRRSLYCPDSPSIHPTSEPKNCVLQRDGFYECVFQPIFLLSGYTMWIRINHSLGSLDSPPTCVLPDSVVKPLPPSNVKAEITVNTGLLKVSWEKPVFPENNLQFQIRYGLSGKEIQWKTHEVFDAKSKSASLLVSDLCAVYVVQVRCRRLDGLGYWSNWSSPAYTLVMDVKVPMRGPEFWRKMDGDVTKKERNVTLLWKPLTKNDSLCSVRRYVVKHRTAHNGTWSEDVGNRTNLTFLWTEPAHTVTVLAVNSLGASLVNFNLTFSWPMSKVSAVESLSAYPLSSSCVILSWTLSPDDYSLLYLVIEWKILNEDDGMKWLRIPSNVKKFYIHDNFIPIEKYQFSLYPVFMEGVGKPKIINGFTKDAIDKQQNDAGEELLSKNYHLENEVARLKK
notes: leptin receptor (LepR), Mus musculus, complete extracellular domain D1-D7, residues 23-839; GCN4 leucine zipper, C-terminal, stands in place of the transmembrane domain; Secreted with an N-terminal HA signal peptide from the vector pD649; Dimerised by the leucine zipper; source: Expi293F, transiently transfected, purified from supernatant (Ni-NTA, SEC)
Consider B1, for which the binding result in assay [4] is recorded as “binds”.

B2: mouse LepR^D3-D7-zip (receptor)
chain: DVVYFPPKILTSVGSNASFHCIYKNENQIISSKQIVWWRNLAEKIPEIQYSIVSDRVSKVTFSNLKATRPRGKFTYDAVYCCNEQACHHRYAELYVIDVNINISCETDGYLTKMTCRWSPSTIQSLVGSTVQLRYHRRSLYCPDSPSIHPTSEPKNCVLQRDGFYECVFQPIFLLSGYTMWIRINHSLGSLDSPPTCVLPDSVVKPLPPSNVKAEITVNTGLLKVSWEKPVFPENNLQFQIRYGLSGKEIQWKTHEVFDAKSKSASLLVSDLCAVYVVQVRCRRLDGLGYWSNWSSPAYTLVMDVKVPMRGPEFWRKMDGDVTKKERNVTLLWKPLTKNDSLCSVRRYVVKHRTAHNGTWSEDVGNRTNLTFLWTEPAHTVTVLAVNSLGASLVNFNLTFSWPMSKVSAVESLSAYPLSSSCVILSWTLSPDDYSLLYLVIEWKILNEDDGMKWLRIPSNVKKFYIHDNFIPIEKYQFSLYPVFMEGVGKPKIINGFTKDAIDKQQNDAGEELLSKNYHLENEVARLKK
notes: leptin receptor (LepR), Mus musculus, domains D3-D7, residues 330-839; GCN4 leucine zipper, C-terminal, stands in place of the transmembrane domain; Secreted with an N-terminal HA signal peptide from the vector pD649; Dimerised by the leucine zipper; source: Expi293F, transiently transfected, purified from supernatant (Ni-NTA, SEC)
For the molecule B2, in assay [5], the binding result is recorded as “binds”.
